Literature values in article PMC6389717.

Columns and labels:
[1] = target: Lys39 (UniProt position 39, IMAVVKANAYG); assay: kinetics; conditions: enzyme-substrate complex (alanine-bound active site, external aldimine)
[2] = target: Asp38 (UniProt position 38, DATVEDPVGSE); assay: kinetics (per the article's general statement only; no method given for this value); conditions: presumed enzyme-substrate complex (general statement of the article); not given

Row | Substance | pKa [1] | pKa [2]
1 | Alanine racemase (not stated in the article (inferred: Geobacillus stearothermophilus, formerly Bacillus stearothermophilus)) | 7.4 | –
2 | Ketosteroid isomerase (3-oxo-Delta5-steroid isomerase) (not stated in the article (inferred: Comamonas testosteroni, formerly Pseudomonas testosteroni)) | – | 4.6
